From the nanobody polyreactivity screen of Harvey et al. (2022)

Test: yeast display, Sf9 membrane polyspecificity reagent, FACS + sequencing; frameworks hold sequencing errors
Outline: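 Polyreactivity labels are assigned by the sorting gate from which each nanobody was recovered. The gates were low and high (top ~1%), set on anti-HA fluorescence for expression and streptavidin fluorescence for reagent binding. Before sorting, galactose-induced (36–48 hours) yeast display cells were stained for 1 hour at 4 °C with 10% biotinylated, detergent-solubilized Sf9 membrane reagent.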

Row | Sequence | polyreactivity (PSR sort gate)
1 | QVHLVESGGGLVQAGGSLRLSCAASGRIFNSYAMGWYRQAPGKERELVAAISRNGGITYYADSVKGRFTISRDNAKNTVYLQMNSLKPEDTAVYYCNADCSRRRYSSDYWGQGTQVTVSS | high polyreactivity
2 | QVHLVESGGGLVQAGGSLRLSCAASGRIFRGYAMGWYRQAPGKERELVATISWNGGSTYYADSVKGRFTISRDNAKNTVYLQMNSLKPEDTAVYYCNKRYWGGRYGYDYWGQGTQVTVSS | high polyreactivity
3 | QVHLVESGGGLVQAGGSLRLSCAASGRIFSYYALGWSRQAPGKERELVAAISWSGSRTYYADSVKGRFTFSRDNAKNTVYFQMNSLKPEDTAVYYCDAEVWSTQGSATVQYDYCGQGTQVTVSS | high polyreactivity
4 | QVHLVESGGGLVQAGGSLRLSCAASGRIFTFYAMGWYRQAPGKERELVAAISSSGVRTYYADSVKGRFTISRDNAKNTVYLQMNSLKPEDTAVYYCAAASRANSYRYNYWGQGTQVTVSS | high polyreactivity
5 | QVHLVESGGGLVQAGGSLRLSCAASGRIFVFNAMGWYRQAPGKDRELVAAISRSAFSTYYADSVKGRFTISRDNAKNTVYLHMISLIPEDTAVYYCTDERTYWFFWEMDSWGQGTQVTVSS | low polyreactivity
6 | QVHLVESGGGLVQAGGSLRLSCAASGRIFYKNAMGWYRQAPGKERELVASITVGGGRTSYADSVKGRFTISRDNAKNTVYLQMNSLKPEDTAVFYCAATTGKTTFRATWYDYWGQCTQVTVSS | low polyreactivity
7 | QVHLVESGGGLVQAGGSLRLSCAASGRIFYRNAMGWYRHAPGKERELVAAISRRGGSTSYADSVQGRFTISRDNAKNTVYLQMTSLKPEDTAVYYCAASRFRTGQEDDYWGQGTQVTVSS | high polyreactivity
8 | QVHLVESGGGLVQAGGSLRLSCAASGRIFYSNVMGWYSQAPGKERELLAAISWSGGRTYYADSVKGRFTISRDNAKNTVYLQMNSLKPEDTAVYYCAAPGGVKYDYWGQGTQVTVSS | high polyreactivity
9 | QVHLVESGGGLVQAGGSLRLSCAASGRIFYYYAMGWYRQAPGKERELVAGITITDASTYYADSVKGRFTISRDYAKNTVYLQMNSLKPEYTAVYYCNAVRYWEGRRYYYWGQGTQVTVSS | high polyreactivity
10 | QVHLVESGGGLVQAGGSLRLSCAASGRILGKYSMGWYRQAPGKERELVAAIRLRGGSTYYADSVKGRFTISRDNAKNTVYLQMNSLKPEDTAVYYCAARYWDRSQAYNYWGQGTQVTVSS | high polyreactivity
11 | QVHLVESGGGLVQAGGSLRLSCAASGRILVQNDMGWYRQAPGKERELVAAIRSDGSTSYADSVKGRFTISRDNAKNTVYLQMNSLKPEDTAVYYCAARIDWTGGEYDYWGQGTQVTVSS | low polyreactivity
12 | QVHLVESGGGLVQAGGSLRLSCAASGRIYYRYAMGWYRTAPGKERELVAAISASGRTYYADSVKGRFTISRDNAKNTVYLQMNSLKTEDTAVYYCAKVAAGSLGSWGQGTQVTLSS | high polyreactivity
13 | QVHLVESGGGLVQAGGSLRLSCAASGRLFFYALGWYRQSPRKERELVAAISWSGGSTYYADSVKGRFTISRDNAKNTVYLQMNSLKPEDTAVYYCAADYEGWGYDYRGDYWGQGTQVTVSS | low polyreactivity
14 | QVHLVESGGGLVQAGGSLRLSCAASGRTFDRNAMGWYRQAPGKERELVAAISRNGGSTYYADSVKGRFTISRDNAKNTVYLQMNSLKPEDTAVYYCAAPRSVYDVARGDYWGQGTQVTVSS | high polyreactivity
15 | QVHLVESGGGLVQAGGSLRLSCAASGRTFDVYAMGWYRQATGKERQLVATISYRSARTYYADSVKGRFTISRDNAKNTVYLQMNSLKPEDTAVYYCAAYFETWHGFGYWGQGTQVTVSS | high polyreactivity
16 | QVHLVESGGGLVQAGGSLRLSCAASGRTFPSNVMGWYRQAPGKERELVAGITWRGASTYYADSVKGRFTISRDNAKNTVYLQMNSLKPEDTAVYYCAVRTQYRRYEYWGQGTKVTVSS | high polyreactivity
17 | QVHLVESGGGLVQAGGSLRLSCAASGRTFRDYTMGWYRQAPGKEREFVAAISSTGSTNYADSVKGRFTISRDNAKNTVYLQMNSLKPEDTAVYYCAADGRRWLGWYGYYYWGQGTQVTVSS | low polyreactivity
18 | QVHLVESGGGLVQAGGSLRLSCAASGRTFRYYAMGWYRQAPGKERELVAAITGSGGRTYYADSVKGRFTISRDNAKNTVYLQMNTLKPEDTAVYYCNRDPDIYICYDYWGQGTQVTVSS | high polyreactivity
19 | QVHLVESGGGLVQAGGSLRLSCAASGRTFSTYAMGWYRQAPGKESELVAAISSGGGRTYYADSVKGRFTISRDNAKNTVYLQMNSLKPEDTAVYYCAADRYFRSRRSYEYWGQGTQVTVSS | low polyreactivity
20 | QVHLVESGGGLVQAGGSLRLSCAASGRTFVAYAMGWYRQAPAKERELVARISSGGSTYYADSVKGRFTISRDNAKNTVYLQMNSLKPEDTAVYYCAADRGPFFVPWRRYDYWGQGTEVTVSS | low polyreactivity
21 | QVHLVESGGGLVQAGGSLRLSCAASGRTFWDYAMRWYRQAPGKEREFVAAINTYGGRTYYADSVKGRFTISRDNAINTVYLQMNSLKPEDTAVYYCADRTRDRAYDSWGQGTEVTVSS | high polyreactivity
22 | QVHLVESGGGLVQAGGSLRLSCAASGRTIGWNVMGWYRQAPGKERELVAAISGSGITYADSVKGRFTISRDNAKNTVYLQMNSLKPEDTAVYYCAARARRYTDEYDYWGQGTQVTLSS | low polyreactivity

Row | Sequence | polyreactivity (PSR sort gate)
23 | QVHLVESGGGLVQAGGSLRLSCAASGRTLRSYAMGWYRQAPGKERELVAAINWRDTNTYYADSVKGRFTISRDNAKNTVYLQMNSLKPEDTAVYYCAARYYSRGWRYNYWGPGTQVTVSS | high polyreactivity
24 | QVHLVESGGGLVQAGGSLRLSCAASGRTYIRNAMGWYRQAPGKERELVAAISSRGGRTYYADSVKGRFTISRDNAKNTVYLQMNSLKPEDTAVYYCAADFTYKLDGYDYWGQGTQVTVSS | high polyreactivity
25 | QVHLVESGGGLVQAGGSLRLSCAASGSIFDYYAMGWYRQAPGKERELVAAITYDSGRTYYADSVKGRFTNSRDNAKNTVYLQMYSLKPEDTAVYYCNKYSYSWRYCPGTSGYDYWGQGTQVTVSS | low polyreactivity
26 | QVHLVESGGGLVQAGGSLRLSCAASGSIFGYNAMGWYRQAPGKERELVAAITWRGGSTYYADSVKGRFTISRDNAKNTVYLQMNSLKPEDTAVYYCAAYVYQEYDYWGQGTQVTVSS | high polyreactivity
27 | QVHLVESGGGLVQAGGSLRLSCAASGSIFGYNTMGWYRQAPGKERELVATISGSGGSSYYADSVKGRFTISRDNAKNTVYLQMNSLKPEDTSVYYCAARAYSRYRRTYDYWGQGTQVTVSS | high polyreactivity
28 | QVHLVESGGGLVQAGGSLRLSCAASGSIFITYAMVWYRQAPGKERELVAAIRDSGDRTYYADSVKGRFTISRDNAKNTVYLQMNSLKPEDTAVYYCNARWQEPLKYDYWGQGTKVTVSS | low polyreactivity
29 | QVHLVESGGGLVQAGGSLRLSCAASGSIFLVYAMGWYRPAPGKERELVAVISNGGRTNYADSVKGRFTISRDNAKNTVYLQMNSLKPEDTAVYYCAVRGPTDYWADPYSAGDHWGQGTQVTVSS | high polyreactivity
30 | QVHLVESGGGLVQAGGSLRLSCAASGSIFPYYVMGWYRQAPGKERELVAAISSGGNTYYADSVKGRFTISRDNAKNTVYLQMNSLKPEDTAVYYCNADKSYFVLLFGGYDYWGQGTQVTVSS | high polyreactivity
31 | QVHLVESGGGLVQAGGSLRLSCAASGSIFRSYAMGWYRQAPGKERELVAGISWSGGSTYYADSVKGRFTISRDNAKNTVYLQMNSLKPEDTPVYYCDADIKIRLYTTGDYWGQGTQVTVSS | low polyreactivity
32 | QVHLVESGGGLVQAGGSLRLSCAASGSIFSGYAMGWYRQAPGKEREFVAAISSSGGRTYYADSVKGRFTISRDNAKNTVYLQINSLKPEDTAVYYCNARRWPFNYDYWGQGTQVTVSS | high polyreactivity
33 | QVHLVESGGGLVQAGGSLRLSCAASGSIFSSYAMGWYRQAPGKEREFVAAISWGGGSTYYADSVKGRFTISRDNAKNSVYLQMNSLKPEDTAVYYCAVETWLYPYDYWGQGTQVTVSS | high polyreactivity
34 | QVHLVESGGGLVQAGGSLRLSCAASGSIFTRYVMGWYRQAPGKERELVAAISWSGGSTYYADSVKGRFTISRDNAKNTVYLQMNSLKPEDTAVYYCAAYYWYWSAAWWDEGEMEYWGQGTQVTVSS | high polyreactivity
35 | QVHLVESGGGLVQAGGSLRLSCAASGSIFYKYVMGWYRQAPGKERELVAAISRGGGSTYYADSVKGRFTISRDNAKNTVYLQMNSLKPEDTAVYYCNAVGRPRYGHGFDHWGQGTQVTVSS | high polyreactivity
36 | QVHLVESGGGLVQAGGSLRLSCAASGSIISRYTMGWYRQAPGKERELVAAITSSGGSTYYADSVKGRFTISRDNAKNTVYLQMNSLKPEDTAVYYCNKVNRYGKFDYWGQGTQVTVSS | high polyreactivity
37 | QVHLVESGGGLVQAGGSLRLSCAASGSINYYAMGWYRQAPGKERELVAAITGSGGSTYYADSVKGRFTISRDNAKNTVYLQMNSLKPEDTAVYYCAARYGYIYGPYYYWGQGTQVTVSS | high polyreactivity
38 | QVHLVESGGGLVQAGGSLRLSCAASGSNIYNNAMGWYRQAPGTERELVAAIRSTGTRTYYADSVKGRFTISRDNAKNPVNLQMNSLKPEDTAVYYCAVGDYGLWSYDYWGQGTQVTVSS | low polyreactivity
39 | QVHLVESGGGLVQAGGSLRLSCAASGSSFRYYAMGWYRQAPGKERELVAAISGSGGRTYYADSVKGRFTISRDNEKNNVYLQMNSLKPEDTAVYYCAAQSGYYDSAYGYWGQGTKVTVSS | high polyreactivity
40 | QVHLVESGGGLVQAGGSLRLSCAASGSTFATNAMGWYRQAPGIERELVAAITDGGSTNYADSVKGRFTISRDNAKNTVYLQMNSLKPEDTAVYYCAADGFKTVLPEYDYWGQGTQVTVSS | low polyreactivity
41 | QVHLVESGGGLVQAGGSLRLSCAASGSTFDHYAMAWYRQAPGKERELVASITLSGGSTYYADSVKGRFTISRDNAKNTVYLQMNSLKPEDTAVYYCAAVVVYPYRLGYDYWGQGTQVTVSS | low polyreactivity
42 | QVHLVESGGGLVQAGGSLRLSCAASGSTFDTYAMGWYRQAPGKERELVAAISYRGGNTYYADSVKGRFTISRDNAKNTVYLQMNSLKPEDTAVYYCNAGVSIGRSRRYDYWGQGTQVTVSS | low polyreactivity
43 | QVHLVESGGGLVQAGGSLRLSCAASGSTFFKNAMGWYRQAAGKERELVAAITWSGDRTYADSVKGRFTISRDNAKYTVYLQMNSLKPEDTAVYYCNVDITGYEDDYWGQGTQVTVSS | low polyreactivity
